Measured values reported in US6864054 (INSTITUTE OF MOLECULAR AND CELL BIOLOGY, dated 2005).
Where a chain is given by its changes, count along the chain named. Numbers in names are those of the source.

T1: in vitro translated 35S-labeled CBP (1621-1877) (UniProt P45481 1621-1877)
T1 construct: also called in vitro translated CBP II
T1 sequence (looked up): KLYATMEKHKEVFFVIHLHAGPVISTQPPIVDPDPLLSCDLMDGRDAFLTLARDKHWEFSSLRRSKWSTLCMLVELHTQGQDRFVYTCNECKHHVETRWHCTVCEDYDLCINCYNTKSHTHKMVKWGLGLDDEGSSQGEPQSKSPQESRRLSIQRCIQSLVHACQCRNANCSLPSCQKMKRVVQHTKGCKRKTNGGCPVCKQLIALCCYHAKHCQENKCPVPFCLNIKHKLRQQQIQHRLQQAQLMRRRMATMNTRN

T2: in vitro translated radiolabeled TFIIB (UniProt Q00403 1-316)
T2 sequence (looked up): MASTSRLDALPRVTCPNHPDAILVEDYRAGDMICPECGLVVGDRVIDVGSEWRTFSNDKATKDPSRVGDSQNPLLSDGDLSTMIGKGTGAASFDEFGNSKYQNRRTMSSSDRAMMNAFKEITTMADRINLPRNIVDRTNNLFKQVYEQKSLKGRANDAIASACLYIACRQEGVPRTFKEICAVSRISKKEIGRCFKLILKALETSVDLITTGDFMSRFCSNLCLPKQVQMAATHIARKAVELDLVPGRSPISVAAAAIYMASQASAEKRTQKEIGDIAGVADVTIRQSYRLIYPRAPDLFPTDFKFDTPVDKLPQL

T3: GST-E6AP (UniProt Q05086 24-875)
T3 sequence: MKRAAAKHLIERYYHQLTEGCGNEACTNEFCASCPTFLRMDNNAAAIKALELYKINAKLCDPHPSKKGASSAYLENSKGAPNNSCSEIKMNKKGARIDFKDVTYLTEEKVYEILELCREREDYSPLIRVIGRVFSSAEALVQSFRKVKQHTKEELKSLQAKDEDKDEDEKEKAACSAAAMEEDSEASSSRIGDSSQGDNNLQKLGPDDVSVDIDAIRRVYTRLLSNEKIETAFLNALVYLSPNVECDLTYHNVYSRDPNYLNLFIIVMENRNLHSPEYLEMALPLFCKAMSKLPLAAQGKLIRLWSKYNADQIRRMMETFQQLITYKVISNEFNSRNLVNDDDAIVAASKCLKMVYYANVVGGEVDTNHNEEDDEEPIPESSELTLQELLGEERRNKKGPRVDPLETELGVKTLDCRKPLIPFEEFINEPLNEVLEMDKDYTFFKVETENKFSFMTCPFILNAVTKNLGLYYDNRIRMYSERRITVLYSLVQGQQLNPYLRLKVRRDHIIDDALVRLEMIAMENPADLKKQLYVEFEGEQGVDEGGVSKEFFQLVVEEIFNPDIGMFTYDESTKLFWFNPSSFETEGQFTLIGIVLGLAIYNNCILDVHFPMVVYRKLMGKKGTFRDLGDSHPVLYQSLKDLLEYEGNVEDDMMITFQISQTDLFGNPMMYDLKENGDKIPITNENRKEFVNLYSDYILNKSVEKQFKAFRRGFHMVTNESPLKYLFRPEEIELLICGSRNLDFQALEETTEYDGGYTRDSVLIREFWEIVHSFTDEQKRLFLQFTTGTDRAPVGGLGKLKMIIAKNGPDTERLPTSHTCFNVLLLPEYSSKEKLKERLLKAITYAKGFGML

T4: GST-CBP fusion protein (CBP residues not stated) (UniProt P45481 1621-1877)
T4 sequence: T1 sequence (looked up)

T5: GST-CBP II (residues 1621-1877) (UniProt P45481 1621-1877)
T5 construct: also called GST-CBP II domain
T5 sequence: T1 sequence (looked up)

T6: GST-CBP I (residues 461-662) (UniProt P45481 461-662)
T6 construct: range 461-662; also called GST-CBP I (461-662)
T6 sequence: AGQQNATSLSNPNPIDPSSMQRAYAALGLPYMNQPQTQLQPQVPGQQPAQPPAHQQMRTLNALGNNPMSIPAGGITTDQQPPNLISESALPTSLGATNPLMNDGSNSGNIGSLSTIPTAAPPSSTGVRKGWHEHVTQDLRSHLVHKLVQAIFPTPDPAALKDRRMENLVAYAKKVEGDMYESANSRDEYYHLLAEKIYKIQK

B1: MBP-CBP (residues 1808-1852) fusion protein (other)
chain: GCKRKTNGGCPVCKQLIALCCYHAKHCQENKCPVPFCLNIKHKLR
notes: Bacterially expressed
B2: GST-16E6 N-terminal half (1-84) (other)
chain: MFQDPQERPRKLPQLCTELQTTIHDIILECVYCKQQLLRREVYDFAFRDLCIVYRDGNPYAVCDKCLKFYSKYSEYRHYCYSLY
B3: GST-16E6 C-terminal half (85-151) (other)
chain: GTTLEQQYNKPLCDLLIRCINCQKPLCPEEKQRHLDKKQRFHNIRGRWTGRCMSCCRSSRTRRETQL
B4: GST-Mdm2 (466-484) (other, human, UniProt Q00987 466-484, looked up, not shown: a dimerising Fc or GST)
chain: KKLKKRNKPCPVCRQPIQM
notes: also called wild type Mdm2 TRAM; Mdm2 TRAM
B5: GST-11E6 (other)
chain: MESKDASTSATSIDQLCKTFNLSLHTLQIQCVFCRNALTTAEIYAYAYKNLKVVWRDNFPFAACACCLELQGKINQYRHFNYAAYAPTVEEETNEDILKVLIRCYLCHKPLCEIEKLKHILGKARFIKLNNQWKGRCLHCWTTCMEDLLP
B6: in vitro translated HPV-11 E6 protein (other)
chain: B5 chain
notes: mature
B7: GST-6E6 (other)
chain: MESANASTSATTIDQLCKTFNLSMHTLQINCVFCKNALTTAEIYSYAYKHLKVLFRGGYPYAACACCLEFHGKINQYRHFDYAGYATTVEEETKQDILDVLIRCYLCHKPLCEVEKVKHILTKARFIKLNCTWKGRCLHCWTTCMEDMLP
notes: mature
B8: in vitro translated and radiolabeled HPV-16 E6 (other)
chain: MFQDPQERPRKLPQLCTELQTTIHDIILECVYCKQQLLRREVYDFAFRDLCIVYRDGNPYAVCDKCLKFYSKYSEYRHYCYSLYGTTLEQQYNKPLCDLLIRCINCQKPLCPEEKQRHLDKKQRFHNIRGRWTGRCMSCCRSSRTRRETQL
B9: GST-16E6 (other)
chain: B8 chain
B10: in vitro translated HPV-16 E6 L50G protein (other)
chain: B8 chain with L50G
B11: GST-16E6 without C-terminal residues 148-151 (other)
chain: MFQDPQERPRKLPQLCTELQTTIHDIILECVYCKQQLLRREVYDFAFRDLCIVYRDGNPYAVCDKCLKFYSKYSEYRHYCYSLYGTTLEQQYNKPLCDLLIRCINCQKPLCPEEKQRHLDKKQRFHNIRGRWTGRCMSCCRSSRTRR

Columns and labels:
GST-16E6 = biological target: B9; assay: GST micro-affinity column, purified recombinant proteins, western blot
[1] = biological target: T1, in vitro translated 35S-labeled CBP …; assay: GST-E6 fragment micro-affinity column
[2] = biological target: T2, in vitro translated radiolabeled TFIIB; assay: GST micro-column pull-down, IVT protein
[3] = biological target: in vitro translated 35S-methionine labelled p53 (wild type) (UniProt P04637 1-393); assay: GST micro-column pull-down, IVT protein
[4] = biological target: T1, in vitro translated 35S-labeled CBP …; assay: GST-E6 micro-affinity column, IVT CBP II
GST-E6AP = biological target: T3, GST-E6AP; assay: GST-E6AP micro-affinity column, IVT E6
[5] = biological target: T4, GST-CBP fusion protein (CBP residues …); assay: GST-CBP micro-affinity column, IVT E6
[6] = biological target: T5, GST-CBP II (residues 1621-1877); assay: GST micro-affinity column, IVT E6
GST (control) = biological target: T7, GST (control) (UniProt P08515 1-218 = GST); assay: GST micro-affinity column, IVT radiolabelled E6
T7 construct: also called control GST column; GST alone

[7] = biological target: T6, GST-CBP I (residues 461-662); assay: GST micro-affinity column, IVT radiolabelled E6
[8] = biological target: B1; assay: MBP micro-affinity column, purified recombinant proteins, western blot

in vitro translated 35S-methionine labelled p53 (wild type), sequence (P04637 whole entry): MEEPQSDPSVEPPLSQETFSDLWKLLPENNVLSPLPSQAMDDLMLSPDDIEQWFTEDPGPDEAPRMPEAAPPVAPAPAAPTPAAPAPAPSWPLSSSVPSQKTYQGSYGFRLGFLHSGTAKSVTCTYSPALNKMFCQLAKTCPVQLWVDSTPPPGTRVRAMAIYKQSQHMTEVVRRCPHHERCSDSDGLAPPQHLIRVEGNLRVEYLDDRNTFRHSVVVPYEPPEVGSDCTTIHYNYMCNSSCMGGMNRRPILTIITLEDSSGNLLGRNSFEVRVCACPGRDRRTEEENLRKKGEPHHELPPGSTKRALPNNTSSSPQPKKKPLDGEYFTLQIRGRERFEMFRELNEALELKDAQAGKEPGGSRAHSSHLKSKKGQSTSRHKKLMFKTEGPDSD
T7 sequence (P08515 whole entry): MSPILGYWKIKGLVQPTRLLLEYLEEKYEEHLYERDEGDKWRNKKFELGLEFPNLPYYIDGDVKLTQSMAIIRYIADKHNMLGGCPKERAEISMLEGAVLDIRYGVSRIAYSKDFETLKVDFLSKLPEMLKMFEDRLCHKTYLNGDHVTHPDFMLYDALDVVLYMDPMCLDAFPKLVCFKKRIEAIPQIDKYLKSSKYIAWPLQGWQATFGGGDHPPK

Q: Does B1 bind (GST-16E6)?
A: binds

Q: Does B2 bind [1]?
A: no binding

Q: Does B3 bind [1]?
A: binds

Q: Does LIRCINCQKPLCPEEKQRHLDKKQRFHNIRGRWTGRCMSCCRSSRTRR (other) [GST-16E6 (amino acids 100-147)] bind [1]?
A: binds

Q: Does B4 bind [2]?
A: binds

Q: Does B4 bind [3]?
A: binds

Q: Does B5 bind [4]?
A: no binding

Q: Does B6 bind (GST-E6AP)?
A: no binding

Q: Does B6 bind [5]?
A: no binding

Q: Does B7 bind [4]?
A: no binding

Q: Does GCKRKTNGGCPVCKQLIAL (other, UniProt P45481 1808-1826, looked up, not shown: a dimerising Fc or GST, also called CBP TRAM) [GST-CBP (1808-1826)] bind [2]?
A: binds

Q: Does B8 bind [6]?
A: binds

Q: Does B8 bind (GST (control))?
A: no binding

Q: Does B8 bind [7]?
A: no binding

Q: Does B9 bind [8]?
A: binds

Q: Does B9 bind [4]?
A: binds

Q: Does B10 bind (GST-E6AP)?
A: no binding

Q: Does B11 bind [1]?
A: binds
